From article PMC9544338

What was measured:
Assay in all cases: co-IP; N2a cells cotransfected with His6-RGS19 and Gαo-GFP (C-terminally tagged) variants, treated with 1 μM ZPT for 3 hours before IP of Gαo with a nanobody against GFP; Western blot; fold against DMSO-treated cells
[1] = biological target: Gαo[G203R]-GFP (C-terminally tagged) (human), P09471
[2] = biological target: Gαo[E246K]-GFP (C-terminally tagged) (human), P09471; conditions: remark: other sources report otherwise
[3] = biological target: Gαo[R209C]-GFP (C-terminally tagged) (human), P09471; conditions: remark: other sources report otherwise

fold increase of the interaction by ZPT over DMSO [1]: 20 fold
fold increase of the interaction by ZPT over DMSO [2]: 12 fold
fold increase of the interaction by ZPT over DMSO [3]: 6 fold
B1: His6-RGS19, P49795 1-217 (other documents disagree on this pair)
chain: MPTPHEAEKQITGPEEADRPPSMSSHDTASPAAPSRNPCCLCWCCCCSCSWNQERRRAWQASRESKLQPLPSCEVCATPSPEEVQSWAQSFDKLMHSPAGRSVFRAFLRTEYSEENMLFWLACEELKAEANQHVVDEKARLIYEDYVSILSPKEVSLDSRVREGINKKMQEPSAHTFDDAQLQIYTLMHRDSYPRFLSSPTYRALLLQGPSQSSSEA
